Target: mouse VLDLR (skeletal muscle) (mouse) (UniProt P98156)
Experiment: cell-based or functional assay

mouse VLDLR (skeletal muscle) (mouse), sequence (P98156 28-873): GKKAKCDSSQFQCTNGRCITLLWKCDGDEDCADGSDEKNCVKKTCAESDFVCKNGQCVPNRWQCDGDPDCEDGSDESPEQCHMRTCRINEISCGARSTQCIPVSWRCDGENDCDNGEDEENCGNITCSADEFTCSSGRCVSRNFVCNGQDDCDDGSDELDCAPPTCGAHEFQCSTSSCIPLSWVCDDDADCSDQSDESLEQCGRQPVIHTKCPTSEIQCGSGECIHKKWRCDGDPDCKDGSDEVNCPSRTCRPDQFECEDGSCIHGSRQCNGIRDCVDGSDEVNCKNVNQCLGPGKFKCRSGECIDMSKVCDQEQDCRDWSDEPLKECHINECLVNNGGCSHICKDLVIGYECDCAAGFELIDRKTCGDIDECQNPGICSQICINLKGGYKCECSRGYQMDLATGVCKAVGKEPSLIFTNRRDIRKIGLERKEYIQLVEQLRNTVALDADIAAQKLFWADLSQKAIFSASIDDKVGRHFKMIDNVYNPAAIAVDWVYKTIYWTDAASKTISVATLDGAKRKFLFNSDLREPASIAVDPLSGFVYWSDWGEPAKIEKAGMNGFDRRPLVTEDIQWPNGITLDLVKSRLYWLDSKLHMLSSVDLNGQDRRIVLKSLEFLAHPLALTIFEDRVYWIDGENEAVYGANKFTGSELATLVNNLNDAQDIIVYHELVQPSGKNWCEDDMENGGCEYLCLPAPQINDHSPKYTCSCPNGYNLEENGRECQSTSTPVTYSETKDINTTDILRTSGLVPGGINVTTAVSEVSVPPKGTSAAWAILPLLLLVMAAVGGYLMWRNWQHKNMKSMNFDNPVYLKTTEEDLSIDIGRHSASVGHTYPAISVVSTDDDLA

level of VLDLR in muscle of transgenic mice against non-transgenic control littermates: < 3 fold
Substance: wild type human PCSK9 with C-terminal V5 tag (from UniProt Q8NBP7 31-692) (enzyme)
